Experimental data taken from US20230174628A1.

Target: RBD of the recombinantly expressed S protein (SARS-CoV-2) (UniProt P0DTC2)
Test: ELISA, plate coated with RBD at 0.01 µg/ml, HRP goat anti-human IgG Fc

OD450 reading: 0.006 OD450
Substance: Irrelevant antibody
